We go through one substance from article PMC3060061.

The test concerns the target PP2A core enzyme (A–C core dimer) (human) (UniProt P30153). The test can be described thus: ITC.
UniProt P30153, sequence (P30153 whole entry, chain 1 of 2): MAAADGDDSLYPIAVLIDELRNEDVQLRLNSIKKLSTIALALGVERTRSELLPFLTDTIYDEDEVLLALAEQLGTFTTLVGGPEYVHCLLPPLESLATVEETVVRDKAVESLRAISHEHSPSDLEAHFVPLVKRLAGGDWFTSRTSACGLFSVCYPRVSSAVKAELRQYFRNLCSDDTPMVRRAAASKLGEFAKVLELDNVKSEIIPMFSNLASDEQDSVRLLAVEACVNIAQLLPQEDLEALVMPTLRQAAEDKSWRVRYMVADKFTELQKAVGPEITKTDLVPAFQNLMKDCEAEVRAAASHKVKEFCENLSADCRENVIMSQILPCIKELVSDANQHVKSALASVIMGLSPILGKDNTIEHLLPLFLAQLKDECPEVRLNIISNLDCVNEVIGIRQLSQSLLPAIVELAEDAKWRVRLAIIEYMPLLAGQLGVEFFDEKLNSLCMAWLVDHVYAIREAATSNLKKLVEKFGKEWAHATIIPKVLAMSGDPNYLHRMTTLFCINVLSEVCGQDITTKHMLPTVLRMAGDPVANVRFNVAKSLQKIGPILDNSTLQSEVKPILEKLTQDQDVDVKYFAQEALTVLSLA
UniProt P30153, sequence (P67775 whole entry, chain 2 of 2, further chain): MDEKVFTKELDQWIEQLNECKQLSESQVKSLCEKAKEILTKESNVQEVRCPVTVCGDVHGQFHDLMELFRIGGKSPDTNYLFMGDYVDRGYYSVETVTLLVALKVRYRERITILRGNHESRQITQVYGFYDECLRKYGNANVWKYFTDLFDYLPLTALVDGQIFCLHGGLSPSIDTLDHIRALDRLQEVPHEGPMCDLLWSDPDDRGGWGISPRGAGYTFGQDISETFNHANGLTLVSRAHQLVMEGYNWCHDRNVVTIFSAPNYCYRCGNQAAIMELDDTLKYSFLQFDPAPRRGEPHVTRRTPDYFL

Regarding LCMT-1 T29V (enzyme), the fold increase of the binding affinity against wild type LCMT-1 was found to be 4 fold.
